Data taken from US20060281899A1, “Mutants of biotin binding protein” (priority 2002, published 2006).
Where two headings read alike, the source gives them in different places.

Key:
[1] = Non-reducing SDS-PAGE thermostability, oligomeric forms after boiling; format: physicochemical; conditions: boiled 20 minutes
Description: The heat stability of the AVRs was studied by using an SDS-PAGE-based method (Bayer, E. A., Ehrlich-Rogozinski, S. and Wilchek, M. (1996) Electrophoresis 17, 1319-1324). In this method, each protein sample was divided into two fractions one of which was kept biotin-free and the other was supplemented with an excess of biotin. The samples were then mixed with denaturing SDS-PAGE sample buffer (containing β-mercaptoethanol) and incubated at a given temperature for 20 minutes. After heat treatment, the samples were subjected to SDS-PAGE and visualised by staining with Coomassie brilliant blue. The relative proportions of tetrameric and monomeric forms of the AVR proteins (with avidin as the control) were detected. A similar assay, with β-mercaptoethanol omitted from the sample buffer, was performed to examine the presence of intersubunit disulfide-bridges. Sensitivity to proteinase K was studied both in the absence and in the presence of biotin as described (Laitinen, O. H., Airenne, K. J., Marttila, A. T., Kulik, T., Porkka, E., Bayer, E. A., Wilchek, M. and Kulomaa, M. S. (1999) FEBS Lett. 461, 52-8). The isoelectric point of each AVR was determined by isoelectric focusing as previously reported (Marttila, A. T., Airenne, K. J., Laitinen, O. H., Kulik, T., Bayer, E. A., Wilchek, M. and Kulomaa, M. S. (1998) FEBS Lett. 441, 313-317). The glycosylation patterns of the AVR proteins were studied by treating the proteins with Endo Hf and PNGase F glycosidase according to the manufacturer's instructions (New England Biolabs, Mass., USA).

[2] = IASyS optical biosensor, binding in a 2-iminobiotin cuvette; conditions: for Kd: 2-iminobiotin cuvette, 20.0° C.
Description: The biotin-binding characteristics of the AVR proteins were studied as previously described using the IASyS optical biosensor (Marttila, A. T., Airenne, K. J., Laitinen, O. H., Kulik, T., Bayer, E. A ., Wilchek, M. and Kulomaa, M. S. (1998) FEBS Lett. 441, 313-317; Laitinen, O. H., Airenne, K. J., Marttila, A. T., Kulik, T., Porkka, E., Bayer, E. A., Wilchek, M. and Kulomaa, M. S. (1999) FEBS Lett. 461, 52-8). Affinities were measured for 2-iminobiotin or biotin at 20.0° C. using a stirring power of 100%. Briefly, the protein under study in biotin-free buffer was allowed to bind to the biotin-coated surface of the IASyS cuvette. As a negative control, the protein under study was saturated with excess biotin prior to (and was also maintained under biotin excess upon) addition to the cuvette. Under these conditions, residual binding to the biotin surface of the cuvette could be regarded as unspecific, and was used as a measure of baseline variation. Binding equilibrium in the experimental cuvette was considered to be attained after no binding was detected as compared to negative control.
The actual dissociation constants (Kd) were calculated for the AVRs according to the kass and kdiss rates measured in a separate assay in different protein concentrations (varying between 10 μM and 100 pM) (Table 4 and FIG. 6). The binding seemed to follow two-order or even more complex kinetics. However, the first 1000 seconds of the binding fitted considerably well to the bi-phasic curve. All measured dissociation rate constants (kdiss) followed the first-order kinetics. Because of the extremely high binding, affinities of the AVRs for biotin could not be determined except for AVR1, AVR2 and AVR7. Binding to 2-iminobiotin was determined only for AVR4/5, and it was similar to that of avidin. The lack of binding for the other AVRs was surprising, since most of them were purified using 2-iminobiotin agarose.

[3] = Differential scanning calorimetry of avidin and AVR4/5 forms; format: physicochemical
Description: The thermodynamics of the heat-induced unfolding of the proteins were studied using DSC. The transition midpoint of heat-induced denaturation (Tm) of the avidin and different AVR4/5 forms was studied using a Nano II differential scanning calorimeter (Calorimetric Sciences Corporation, Provo, Utah, USA). The reference cell was filled with buffer whereas the sample cell was filled with proteins dissolved in 50 mM sodium phosphate buffer, pH 7.0 containing 100 mM NaCl. Avidin and AVR4/5(C124S) were also analyzed in 50 mM Na-acetate pH 4.0 containing 100 mM NaCl. Furthermore, AVR4/5 was analyzed in the presence of 2-mercaptoethanol (0.4% v/v). The samples (1.6-9.6 μM) were analyzed both in the absence and presence of a three fold molar excess of biotin/subunit. All samples were degassed before being loaded into the DSC. The thermograms were recorded as a function of temperature; between 25 and 130° C. at a rate of 55.6° C./h (Gonzalez, M., Argarana, C. E. & Fidelio, G. D. (1999) Biomol. Eng. 16, 67-72; Nordlund, H. R., Laitinen, O. H., Uotila, S. T., Nyholm, T., Hytönen, V. P., Slotte, J. P. & Kulomaa, M. S. (2003) J. Biol. Chem. 278, 2479-2483). Data was analyzed using Microcal Origin 6.0 and Cpcalc 2.1 (Applied Thermodynamics, Hunt Valley, Md.). The change in heat capacity upon unfolding (ΔCp) was measured for avidin and AVR4/5(C124S) using DSC data from measurements in pH 4.0 and 7.0. ΔCp was then obtained from the slope of ΔH vs. Tm (Liu, Y. & Sturtevant, J. M. (1996) Biochemistry 35, 3059-3062).

[4] = 2-iminobiotin cuvette (as for Kd of this protein)

B1: AVR4/5: Recombinant chicken avidin-related protein 4/5 (AVR4 and AVR5 identical in coding sequence) (protein, UniProt P56734 25-150, looked up)
Avidin-related protein 4/5: ARKCSLTGKWTNNLGSIMTIRAVNSRGEFTGTYLTAVADNPGNITLSPLLGIQHKRASQPTFGFTVHWNFSESTTVFTGQCFIDRNGKEVLKTMWLLRSSVNDISYDWKATRVGYNNFTRLCTVEE
- Dimeric form, relative proportion [1]: 50 percentage
- Monomeric form, relative proportion [1]: 50 percentage
- kass [2, 4]: (1.8 ± 0.2) × 10^5 M^−1 s^−1
- kdiss [2, 4]: (1.7 ± 0.7) × 10^−3 s^−1
- Kd ([2]; read-out: Kd calculated directly from the binding curves): 91 nM
- Kd ([2]; read-out: Kd calculated from the equilibrium response data): 570 nM
- maximal binding (Rmax) ([2]; iminobiotin binding, highest concentration (2.2×10−6 M)): ca. 1000 arc seconds
- DSC Tm(−biotin) ([3]; 50 mM sodium phosphate pH 7.0, 100 mM NaCl): 107.4 ± 0.3 °C
- ΔTm ([3]; change in Tm upon addition of a three-fold molar excess of biotin): 17.3 °C
- ΔH of unfolding ([3]; sample without biotin): 194 ± 33.5 kcal/mol
- DSC Tm (+biotin) ([3]; three-fold molar excess of biotin, pH 7.0): 124.7 ± 0.3 °C
